Source: patent US5834244
Residue numbers refer to the chain shown, from its start.

B1: IV-32B (designed binder)
chain: VREVCSEQAEPGPCKALMKRWYFDVTEGKCAPFYYGGCYGNRNNFDTEEYCAAVCGSA
B2: IV-54C (designed binder)
chain: B1 chain with K15R, Y34V
B3: IV-49C (designed binder)
chain: B1 chain with K15R, Y34I

biological target: rabbit TF-FVIIa in the PT assay (rabbit thromboplastin with rabbit plasma) (rabbit)

fold increase of clotting time over baseline, PT assay in rabbit plasma (fold increase over baseline at 50 µM) | Binder
1.2 | B1
3.5 | B2
4.4 | B3
